Source: article PMC9482650, “Quantitative fragmentomics allow affinity mapping of interactomes” (Nature Communications, 2022)

T1: ARHGEF11, O15085
T1 sequence (O15085 42-136, limits assumed, looked up): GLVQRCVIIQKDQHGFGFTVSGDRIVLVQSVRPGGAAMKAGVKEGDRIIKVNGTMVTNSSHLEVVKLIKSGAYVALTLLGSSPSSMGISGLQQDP

T2: CARD11, Q9BXL7
T2 sequence (Q9BXL7 662-765, limits assumed, looked up): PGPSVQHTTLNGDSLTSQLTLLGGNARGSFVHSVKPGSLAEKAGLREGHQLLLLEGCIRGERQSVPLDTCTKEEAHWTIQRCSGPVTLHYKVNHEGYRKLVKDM

T3: DVL3, Q92997
T3 sequence (Q92997 244-331, limits assumed, looked up): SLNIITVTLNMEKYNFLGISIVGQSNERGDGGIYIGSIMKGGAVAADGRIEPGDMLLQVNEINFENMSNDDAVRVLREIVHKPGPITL

T4: GRIP1_3, Q9Y3R0
T4 sequence (Q9Y3R0 247-346, limits assumed, looked up): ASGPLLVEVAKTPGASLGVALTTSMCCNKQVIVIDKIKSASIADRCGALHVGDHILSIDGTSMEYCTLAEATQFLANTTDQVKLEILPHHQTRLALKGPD

T5: GRIP1_7, Q9Y3R0
T5 sequence (Q9Y3R0 999-1096, limits assumed, looked up): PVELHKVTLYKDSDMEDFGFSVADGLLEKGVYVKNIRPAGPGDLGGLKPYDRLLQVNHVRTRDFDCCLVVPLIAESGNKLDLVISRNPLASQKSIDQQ

T6: HTRA3, P83110
T6 sequence (P83110 354-453, limits assumed, looked up): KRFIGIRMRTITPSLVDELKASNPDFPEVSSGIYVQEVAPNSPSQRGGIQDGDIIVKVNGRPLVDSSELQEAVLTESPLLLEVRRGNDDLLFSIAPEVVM

T7: LNX2_3, Q8N448
T7 sequence (Q8N448 463-564, limits assumed, looked up): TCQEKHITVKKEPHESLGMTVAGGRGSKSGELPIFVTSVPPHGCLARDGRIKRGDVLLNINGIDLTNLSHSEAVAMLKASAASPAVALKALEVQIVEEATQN

T8: LRRC7, Q96NW7
T8 sequence (Q96NW7 1440-1537, limits assumed, looked up): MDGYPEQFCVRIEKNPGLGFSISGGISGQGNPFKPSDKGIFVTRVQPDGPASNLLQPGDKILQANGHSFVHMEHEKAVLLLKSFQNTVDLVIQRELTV

T9: MPDZ_12, O75970
T9 sequence (O75970 1857-1958, limits assumed, looked up): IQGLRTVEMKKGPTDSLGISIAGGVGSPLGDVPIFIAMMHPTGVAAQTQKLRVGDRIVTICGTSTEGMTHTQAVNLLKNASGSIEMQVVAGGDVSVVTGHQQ

T10: RHPN1, Q8TCX5
T10 sequence (Q8TCX5 508-602, limits assumed, looked up): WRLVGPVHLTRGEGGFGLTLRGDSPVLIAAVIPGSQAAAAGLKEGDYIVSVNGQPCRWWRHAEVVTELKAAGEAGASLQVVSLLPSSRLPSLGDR


Experiments:
Experiment in all cases: holdup assay
Design in all cases: key: below the threshold = too weak to quantify, mostly under pKd 3.1 to 4
Details in all cases: plain residues with an end cap or a label only (N-terminal biotin on a linker: ado-ado)
ARHGEF11, O15085 = target: T1, ARHGEF11, O15085
CARD11, Q9BXL7 = target: T2, CARD11, Q9BXL7
DLG5_1, Q8TDM6 = target: DLG5_1, Q8TDM6
DLG5_1, Q8TDM6, sequence (Q8TDM6 617-713): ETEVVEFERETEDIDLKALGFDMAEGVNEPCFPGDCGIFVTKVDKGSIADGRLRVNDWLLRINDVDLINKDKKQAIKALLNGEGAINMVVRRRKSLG

DVL3, Q92997 = target: T3, DVL3, Q92997
GIPC2, Q8TF65 = target: GIPC2, Q8TF65
GIPC2, Q8TF65, sequence (Q8TF65 112-203): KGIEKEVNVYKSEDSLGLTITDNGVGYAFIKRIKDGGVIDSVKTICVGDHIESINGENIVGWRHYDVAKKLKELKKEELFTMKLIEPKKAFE

GRASP, Q7Z6J2 = target: GRASP, Q7Z6J2
GRASP, Q7Z6J2, sequence (Q7Z6J2 96-193): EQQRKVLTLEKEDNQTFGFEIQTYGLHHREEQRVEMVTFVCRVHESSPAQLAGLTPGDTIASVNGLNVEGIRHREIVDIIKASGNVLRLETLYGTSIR

GRIP1_3, Q9Y3R0 = target: T4, GRIP1_3, Q9Y3R0
GRIP1_7, Q9Y3R0 = target: T5, GRIP1_7, Q9Y3R0
GRIP2_5, Q9C0E4 = target: GRIP2_5, Q9C0E4
GRIP2_5, Q9C0E4, sequence (Q9C0E4 544-642): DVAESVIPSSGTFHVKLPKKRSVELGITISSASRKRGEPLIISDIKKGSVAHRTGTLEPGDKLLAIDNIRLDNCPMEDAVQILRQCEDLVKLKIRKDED

HTRA3, P83110 = target: T6, HTRA3, P83110
IL16_1, Q14005 = target: IL16_1, Q14005
IL16_1, Q14005, sequence (Q14005 210-306): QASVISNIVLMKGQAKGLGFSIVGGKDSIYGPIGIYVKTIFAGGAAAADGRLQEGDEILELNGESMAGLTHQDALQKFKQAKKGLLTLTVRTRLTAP

Inadl_10, Q8NI35 = target: Inadl_10, Q8NI35
Inadl_10, Q8NI35, sequence (Q8NI35 1673-1763): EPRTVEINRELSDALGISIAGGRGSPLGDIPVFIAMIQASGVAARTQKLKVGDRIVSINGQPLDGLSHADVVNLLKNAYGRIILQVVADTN

LDB3, O75112 = target: LDB3, O75112
LDB3, O75112, sequence (O75112 1-94): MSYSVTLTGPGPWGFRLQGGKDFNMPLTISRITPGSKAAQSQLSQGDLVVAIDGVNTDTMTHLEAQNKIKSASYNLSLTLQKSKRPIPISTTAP

LNX1_1, Q8TBB1 = target: LNX1_1, Q8TBB1
LNX1_1, Q8TBB1, sequence (Q8TBB1 261-371): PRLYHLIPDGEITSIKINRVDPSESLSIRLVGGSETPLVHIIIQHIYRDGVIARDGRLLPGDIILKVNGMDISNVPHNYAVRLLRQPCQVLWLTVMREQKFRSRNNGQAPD

LNX1_3, Q8TBB1 = target: LNX1_3, Q8TBB1
LNX1_3, Q8TBB1, sequence (Q8TBB1 500-596): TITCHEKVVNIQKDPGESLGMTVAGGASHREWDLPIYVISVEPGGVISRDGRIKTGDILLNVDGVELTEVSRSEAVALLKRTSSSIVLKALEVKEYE

LNX2_3, Q8N448 = target: T7, LNX2_3, Q8N448
LRRC7, Q96NW7 = target: T8, LRRC7, Q96NW7
MAGI1_2, Q96QZ7 = target: MAGI1_2, Q96QZ7
MAGI1_2, Q96QZ7, sequence (Q96QZ7 456-580): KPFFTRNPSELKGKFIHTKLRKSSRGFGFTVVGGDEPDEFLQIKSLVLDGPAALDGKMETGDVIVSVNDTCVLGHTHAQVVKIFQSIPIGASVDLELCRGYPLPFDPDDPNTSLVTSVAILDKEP

MAGI2_3, Q86UL8 = target: MAGI2_3, Q86UL8
MAGI2_3, Q86UL8, sequence (Q86UL8 600-682): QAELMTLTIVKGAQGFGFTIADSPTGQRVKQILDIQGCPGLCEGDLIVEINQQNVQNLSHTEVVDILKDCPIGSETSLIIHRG

MPDZ_12, O75970 = target: T9, MPDZ_12, O75970
NHERF4_1, Q86UT5-2 = target: NHERF4_1, Q86UT5-2
NHERF4_1, Q86UT5-2, sequence (Q86UT5 other isoform, or with tags, fused parts or gaps): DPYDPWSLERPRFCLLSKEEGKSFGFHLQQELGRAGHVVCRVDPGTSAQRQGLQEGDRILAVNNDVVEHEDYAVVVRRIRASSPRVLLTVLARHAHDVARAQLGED

NHERF4_2, Q86UT5 = target: NHERF4_2, Q86UT5
NHERF4_2, Q86UT5, sequence (Q86UT5 220-308): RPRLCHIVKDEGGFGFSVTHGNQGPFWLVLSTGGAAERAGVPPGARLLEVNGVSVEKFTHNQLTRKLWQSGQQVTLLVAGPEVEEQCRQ

NHERF4_4, Q86UT5 = target: NHERF4_4, Q86UT5
NHERF4_4, Q86UT5, sequence (Q86UT5 464-550): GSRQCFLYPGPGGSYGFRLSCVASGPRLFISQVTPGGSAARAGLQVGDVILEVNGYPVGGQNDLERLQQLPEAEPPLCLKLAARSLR

PDZRN4_1, Q6ZMN7 = target: PDZRN4_1, Q6ZMN7
PDZRN4_1, Q6ZMN7, sequence (Q6ZMN7 213-318): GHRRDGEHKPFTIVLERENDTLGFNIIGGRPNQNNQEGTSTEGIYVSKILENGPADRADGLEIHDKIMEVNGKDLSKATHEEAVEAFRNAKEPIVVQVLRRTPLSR

RHPN1, Q8TCX5 = target: T10, RHPN1, Q8TCX5
SCRIB_1, Q14160 = target: SCRIB_1, Q14160
SCRIB_1, Q14160, sequence (Q14160 718-814): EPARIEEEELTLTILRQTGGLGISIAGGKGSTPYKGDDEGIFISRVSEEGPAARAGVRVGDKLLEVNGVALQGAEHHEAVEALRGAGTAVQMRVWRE

TJP1_2, Q07157 = target: TJP1_2, Q07157
TJP1_2, Q07157, sequence (Q07157 181-274): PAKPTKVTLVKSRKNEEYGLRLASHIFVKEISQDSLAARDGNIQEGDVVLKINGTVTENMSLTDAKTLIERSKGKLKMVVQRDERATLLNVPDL

TJP1_3, Q07157 = target: TJP1_3, Q07157
TJP1_3, Q07157, sequence (Q07157 416-512): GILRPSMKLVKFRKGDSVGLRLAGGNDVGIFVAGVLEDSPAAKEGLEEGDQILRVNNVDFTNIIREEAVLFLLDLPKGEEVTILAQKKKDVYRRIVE

| pKd (ARHGEF11, O15085) | pKd (CARD11, Q9BXL7) | pKd (DLG5_1, Q8TDM6) | pKd (DVL3, Q92997) | pKd (GIPC2, Q8TF65) | pKd (GRASP, Q7Z6J2) | pKd (GRIP1_3, Q9Y3R0) | pKd (GRIP1_7, Q9Y3R0) | pKd (GRIP2_5, Q9C0E4) | pKd (HTRA3, P83110) | pKd (IL16_1, Q14005) | pKd (Inadl_10, Q8NI35) | pKd (LDB3, O75112) | pKd (LNX1_1, Q8TBB1) | pKd (LNX1_3, Q8TBB1) | pKd (LNX2_3, Q8N448) | pKd (LRRC7, Q96NW7) | pKd (MAGI1_2, Q96QZ7) | pKd (MAGI2_3, Q86UL8) | pKd (MPDZ_12, O75970) | other results | Binder |
| --- | --- | --- | --- | --- | --- | --- | --- | --- | --- | --- | --- | --- | --- | --- | --- | --- | --- | --- | --- | --- | --- |
| below the threshold | below the threshold | below the threshold | below the threshold | below the threshold | 3.89 | below the threshold | below the threshold | below the threshold | 3.64 | 4.13 | below the threshold | below the threshold | 3.83 | below the threshold | below the threshold | below the threshold | 4.04 | 3.77 | below the threshold | pKd (NHERF4_1, Q86UT5-2): below the threshold; pKd (NHERF4_2, Q86UT5): below the threshold; pKd (NHERF4_4, Q86UT5): below the threshold; pKd (PDZRN4_1, Q6ZMN7): below the threshold; pKd (RHPN1, Q8TCX5): 3.58; pKd (SCRIB_1, Q14160): below the threshold; pKd (TJP1_2, Q07157): below the threshold; pKd (TJP1_3, Q07157): below the threshold | RRLQGTSSMV [GOLT1A, Q6ZVE7] |
| 4.13 | below the threshold | below the threshold | below the threshold | below the threshold | 4.12 | below the threshold | below the threshold | below the threshold | 4.24 | below the threshold | below the threshold | below the threshold | 3.58 | below the threshold | below the threshold | below the threshold | below the threshold | below the threshold | below the threshold | pKd (NHERF4_1, Q86UT5-2): 3.88; pKd (NHERF4_2, Q86UT5): below the threshold; pKd (NHERF4_4, Q86UT5): below the threshold; pKd (PDZRN4_1, Q6ZMN7): below the threshold; pKd (RHPN1, Q8TCX5): 3.58; pKd (SCRIB_1, Q14160): 3.8; pKd (TJP1_2, Q07157): below the threshold; pKd (TJP1_3, Q07157): below the threshold | ALPLPQSSTC [IGF1R, P08069] |
| 5.34 | 3.54 | below the threshold | 4.33 | below the threshold | 5.1 | below the threshold | below the threshold | below the threshold | 3.78 | 3.67 | 4.26 | below the threshold | 5.09 | 3.95 | below the threshold | 3.97 | 4.92 | below the threshold | 3.62 | pKd (NHERF4_1, Q86UT5-2): 4.56; pKd (NHERF4_2, Q86UT5): below the threshold; pKd (NHERF4_4, Q86UT5): 3.76; pKd (PDZRN4_1, Q6ZMN7): 4.19; pKd (RHPN1, Q8TCX5): 4.48; pKd (SCRIB_1, Q14160): 5.33; pKd (TJP1_2, Q07157): below the threshold; pKd (TJP1_3, Q07157): below the threshold | REKKFFCTIL [GNG4, P50150] |
| 4.09 | below the threshold | below the threshold | below the threshold | 4.24 | below the threshold | below the threshold | below the threshold | below the threshold | below the threshold | 3.83 | below the threshold | below the threshold | below the threshold | below the threshold | below the threshold | below the threshold | 4.67 | 3.94 | below the threshold | pKd (NHERF4_1, Q86UT5-2): below the threshold; pKd (NHERF4_2, Q86UT5): below the threshold; pKd (NHERF4_4, Q86UT5): 3.9; pKd (PDZRN4_1, Q6ZMN7): 4.31; pKd (RHPN1, Q8TCX5): 4.55; pKd (SCRIB_1, Q14160): 4.34; pKd (TJP1_2, Q07157): below the threshold; pKd (TJP1_3, Q07157): below the threshold | TGPWKNETTV [ADGRA1, Q86SQ6] |
